The nanobody polyreactivity screen of Harvey et al. (2022)

assay: yeast display, Sf9 membrane polyspecificity reagent, FACS + sequencing; frameworks hold sequencing errors
Procedure, shortened: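 Galactose induction of a Saccharomyces cerevisiae BJ5465 synthetic nanobody display library ran 36–48 hours. The cells were then stained for 1 hour at 4 °C with 10% biotinylated, detergent-solubilized Sf9 membrane reagent, pulled down on streptavidin microbeads and FACS-sorted into low and high (top ~1%) gates on expression and reagent-binding fluorescence. Labels for polyreactivity follow the gate of origin.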

Row | Sequence | polyreactivity (PSR sort gate)
1 | QVQLVESGGGLVQAGGSLRLSCAASGSYTMGWYRQAPGKERELVAAISKSGGSTYYADSVKGRFTISRDNAKNTVYLQMNRLKPEDTAVYYCAAVGWWGTYDYWGQGTQVTVSS | high polyreactivity
2 | QVQLVESGGGLVQAGGSLRLSCAASGTFAGNAIGWYRQAPGKERELVAAINSGGSTNYADSVKGRFTISRDNAKNTVYLQMNSLKPEDTAVYYCAADSVWSPVDYDYWGQGSQVTVSS | low polyreactivity
3 | QVQLVESGGGLVQAGGSLRLSCAASGTFGGYAMGWYRQAPGKERELVARIRRNGGSTYYADSVKGRFTISRDTAKNTVYLQMNSLKPEDTAVYYCATDQLSLSSYFRPYDYGYWGQGTQVTVSS | high polyreactivity
4 | QVQLVESGGGLVQAGGSLRLSCAASGTFIGYAMGWYRQAPGKERELVAAIDVSGGSTYYADSVKGRFTISRDNAKNTVYLQMNSLKPEDTAVYYCATDRGPEVVLYDYWGHGTQVTVSS | low polyreactivity
5 | QVQLVESGGGLVQAGGSLRLSCAASGTFRRYTMGWYRQAPGKERELVAAITSSGGTYYADSVKGRFTISRDNAKNTVYLQMNSLKPEDTAVYYCAARDYWSRYFRPGIVGWHDYWGQGTQVTVSS | high polyreactivity
6 | QVQLVESGGGLVQAGGSLRLSCAASGTFTVNTMGWSRQAPGKERELVAAISTGDTTTYADSVKGRFTISRDNAKNTVYLQMNSLKPEDTAVYYCNAVAKLYYWRYDYWGQGTQVTVSS | low polyreactivity
7 | QVQLVESGGGLVQAGGSLRLSCAASGTFVLSAMGWYRPAPGKERELVAAISKTGRTYYADSVKGRFTISRDNAKNTVYLQMNSLKPEDTSVYYCAAQRFSKFGYWGQGTQVTVSS | high polyreactivity
8 | QVQLVESGGGLVQAGGSLRLSCAASGTFWGYAMGWYRQAPGKERELVAAISASGASTSYADSVKGRFTISRDNAKNTVYLQMNSLKPEDTAVYYCDARRNTAYGYWGQGTQVTVSS | high polyreactivity
9 | QVQLVESGGGLVQAGGSLRLSCAASGTFYTNAMGWYRPAPGKERELVAAITSGGSTYYADSVKGRFTISRDNAKNTVYLQMNSLKPEDTAVYYCAADPVSHGYDIDYDYWGQGTQVTVSS | low polyreactivity
10 | QVQLVESGGGLVQAGGSLRLSCAASGTFYYYAMGWYRPAPGKERELVAAIDYSGGSTYYADSVKGRFTISRDNAKNTVYLQMNSLKPEDTAVYYCAYVSVYDFEYWGQGTQVTVSS | high polyreactivity
11 | QVQLVESGGGLVQAGGSLRLSCAASGTIFDSYAKVWYRQAPGKERELVAAISSSVGSTYYADSVKGRFTISRDNAKNTVYLQMNSLKPEDTAVYYCNADEYWASGYDPYDYWGQGTQVTVSS | low polyreactivity
12 | QVQLVESGGGLVQAGGSLRLSCAASGTIFFPNAMGWYREAPGKERELVAAISWSGDSTYADSVKGRFTISRDNAKNTVYLQMNSLKPQDTAVYYCAAVYLWWSYEFDYWGQGTQVTVSS | low polyreactivity
13 | QVQLVESGGGLVQAGGSLRLSCAASGTIFQQYAMGWYRQAPGKERELVAAISYSGGTTYYADSVKGRFTISRDNAKNTDYLEMNSLKPEDTAVYYCAAYYPSGSYDYYWGQGTQVTVSS | low polyreactivity
14 | QVQLVESGGGLVQAGGSLRLSCAASGTIFVPYAMGWYRQAPGKERELVAVITSGGSTYYADSVKGRFTISRDNAKNTVYLQMNSLKPEDTAVYYCNADLYYVWSTLSQFDYWGQGTQVTVSS | low polyreactivity
15 | QVQLVESGGGLVQAGGSLRLSCAASGTIFYDNAMGWYRQAPAKERELVASIRWSGDSTYYADSVKGRFTISRDNAKNTVYLQMISLKPEDTAVYYCAADPVEPYFTAIAYDYWGQGTQVTVSS | low polyreactivity
16 | QVQLVESGGGLVQAGGSLRLSCAASGTTFAYYAMGWYRQAPGKERELVAVISVRGGSTYYADSVKGRFTISRDNAKNTVYLQMNSLKPEDTAVYYCAADTFAGYYYWGQGTQVTVSS | high polyreactivity

Row | Sequence | polyreactivity (PSR sort gate)
17 | QVQLVESGGGLVQAGGSLRLSCAASGTTFPRYAMGWYRQAPGKERELVAAISSGGSTYYADSVKGRFTISRDNAKNTVYLQMNRLKPEDTAVYYCNARRSRSRYDYWGQGTQVTVSS | high polyreactivity
18 | QVQLVESGGGLVQAGGSLRLSCAASGTTFSPNAMGWYRQAPGKERELVAAITGGGSTYADSVKGRFTISRDNAKNTVYLQMNSLKPEDTAVYYCNADSYSFPYYYWGQGTQVTVSS | low polyreactivity
19 | QVQLVESGGGLVQAGGSLRLSCAASGTTFTFNAMGWYRQAPGKEREFVAAITASGGRTYYADSVKGRFTISRDNAKNTVYLQMNSLKPEDTAVYYCAAHACLLGPGDFNYWGQGTQVTVSS | low polyreactivity
20 | QVQLVESGGGLVQAGGSLRLSCAASGTTFVKNDMGWYRQAPGKERELVAAISGGSTNYADSVKGRFTISRDNAKNTVYLQMNSLKPEDTAVYYCAAVQWYTSIEGIQPYYYWGQGTQVTVSS | low polyreactivity
21 | QVQLVESGGGLVQAGGSLRLSCAASGTTFVSNAMGWYRQAPGKERELVAAISKSGGSTYYADSVKGRFTISRDNAKNTVYLQMNSLKPEDTAVYYCAKYTAKSFYGQYDYWGQGTQVTVSS | high polyreactivity
22 | QVQLVESGGGLVQAGGSLRLSCAASGTTFYYYAMGWYRQAPGKEREFVAAIRFSGSRTYYADSVKGRFPISRDNAKNTVYLQMNSLIPEDTAVYYCARATLPSVSYYRKLFDYWGQGTHVTVSS | high polyreactivity
23 | QVQLVESGGGLVQAGGSLRLSCAASGTTIETYASGWYRQAPGKERELVATITSGGSTYYAYSVKGRFTISRDTAKITVYLQMNSLKPEDTSVYYCAAGRYGGKHVWYYYWGQGTQVTVSS | high polyreactivity
24 | QVQLVESGGGLVQAGGSLRLSCAASGTYKYYAMGWYRHAPGKERELVAATNRGGSTNYADSVKGRFTISRDNAKNTVYLQMNSLKPEDTAVYYCAAERWYVRGRHYYYWGQGTQVTVSS | high polyreactivity
25 | QVQLVESGGGLVQAGGSLRLSCAASGTYTNAMGWYRQAPGKERELVAAITSSGGSTYYADSVKGRFTISRDNAKNTVYLQMNSLKPEDTAVYYCAKPGVYEVSYTYGYWGQGTQVTVSS | low polyreactivity
26 | QVQLVESGGGLVQAGGSLRLSCAASGVIFGAYAMGWYRQAPGKERELVAAISSRGTSTYYADSVKGRFTISRDNAKNTVYLQMNSLKPEDTAVYYCNVYYIPLRRYDYWGQGTQVTVSS | high polyreactivity
27 | QVQLVESGGGLVQAGGSLRLSCAASGVIFKPSAMGWYRQAPGKERELVASISTGARTYYADSVKGRFTISRDTAKNTVYLQLNSLKPEDTAVYYCAAAYSRWITRYDYWGQGTQVTVSS | high polyreactivity
28 | QVQLVESGGGLVQAGGSLRLSCAASGVIFYFNALGWYRQAPGKERELVAAISGGDNTYYADSVKGRFTISRDNAKNTVYLQMNSLKPEDTAVYYCAAKYRYGQNGYYLYGYWGQGTQVTVSS | low polyreactivity
29 | QVQLVESGGGLVQAGGSLRLSCAASGVNAMGWYRPAPGKEREFVAAITSIGGSTYYADSVKGRFTISRDNAKNTVYLQMNSLKPEDTAVYYCNTDRGPVKVSPLYVSWGQGTQVTLSS | low polyreactivity
30 | QVQLVESGGGLVQAGGSLRLSCAASGYAKGWYRQAPGKESELDAAITSNGGRTYYADSVKGRFTISRDNAKNTVYIQMNSLKPEDTAVYYCATRSGPHYKTRWTYDLGYWGQGSQVTVSS | low polyreactivity
31 | QVQLVESGGGLVQAGGSLRLSCAASGYAMGWYRQAPGKERELVAAITRRGGSTYYADSVKGRFTISRDNAKNTVYLQMNSLKPEDTAVYYCAADNPSYNLWYGYWGQGTQVTVSS | low polyreactivity
32 | QVQLVESGGGLVQAGGSLRLSCAASGYARGWYRQAPGKERELVAAITSGGSTNYADSVKGRFTISRDNAKNTVYLQMNSLKPEDTAVYYCAAAYSLYGHRYDYWGQGTQVTVSS | low polyreactivity
